Experimental findings from article PMC2188260 are described below.

What all share (assay): co-IP
The target of test [1] is gelsolin of rabbit lung macrophages (rabbit (endogenous in lung macrophages)).
Test [2] has the same target. This is another data set of the same source.
The target is the same in test [3]. This is another data set of the same source.
For test [4], the target named is human plasma gelsolin (human) (UniProt P06396).

Read-outs that look alike come from different tables or passages of the source.

Chain of human plasma gelsolin (human) (P06396 28-782): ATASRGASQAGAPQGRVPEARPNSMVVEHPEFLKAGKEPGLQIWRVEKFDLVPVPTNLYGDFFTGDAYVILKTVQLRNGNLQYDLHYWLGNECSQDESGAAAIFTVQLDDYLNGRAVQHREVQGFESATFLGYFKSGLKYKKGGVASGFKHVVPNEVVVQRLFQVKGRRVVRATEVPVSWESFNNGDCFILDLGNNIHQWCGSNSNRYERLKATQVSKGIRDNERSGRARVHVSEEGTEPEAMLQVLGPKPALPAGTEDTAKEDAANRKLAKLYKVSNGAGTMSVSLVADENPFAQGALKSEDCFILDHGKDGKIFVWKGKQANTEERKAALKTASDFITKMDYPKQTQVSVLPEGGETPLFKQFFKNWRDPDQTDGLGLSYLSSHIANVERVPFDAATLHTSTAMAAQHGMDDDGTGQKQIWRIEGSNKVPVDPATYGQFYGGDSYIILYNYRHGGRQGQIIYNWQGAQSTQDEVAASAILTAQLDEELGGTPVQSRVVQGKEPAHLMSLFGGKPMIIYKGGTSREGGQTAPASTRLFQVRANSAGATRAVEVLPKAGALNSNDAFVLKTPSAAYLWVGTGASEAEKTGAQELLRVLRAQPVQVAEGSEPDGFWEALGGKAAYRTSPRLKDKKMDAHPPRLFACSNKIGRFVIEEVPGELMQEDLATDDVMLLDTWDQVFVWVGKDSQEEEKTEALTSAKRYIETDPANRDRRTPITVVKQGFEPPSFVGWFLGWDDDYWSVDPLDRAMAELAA

With “actin of rabbit lung macrophages (from UniProt P29751 1-375) (natural protein)”, the molar ratio of actin to gelsolin on the beads (actin per gelsolin) in test [1] came out at 4. Besides, in test [2], the molar ratio of actin to gelsolin on the beads (actin per gelsolin) is 1 and the percent of gelsolin complexed with actin is 100%. In addition, in test [3], the molar ratio of actin to gelsolin on the beads (actin per gelsolin) was found to be 0.5; the percent of gelsolin complexed with actin came to 50%; the percent of gelsolin in the EGTA-resistant complex (cells in suspension, 0 min) was determined as 20%; the percent of gelsolin in the EGTA-resistant complex (cells in suspension, 30 min) amounted to 90%. In test [3], this substance returned a percent of total gelsolin complexed to actin (1 uM ionomycin, 30 s) of 80%; a percent of total gelsolin complexed to actin (before ionomycin) of 50%; a percentage of gelsolin in an EGTA-resistant complex (DMSO, experiment 1) of 32%; a percentage of gelsolin in an EGTA-resistant complex (DMSO, experiment 2) of 34%. In test [3], this substance displayed a percentage of gelsolin in an EGTA-resistant complex (DMSO, experiment 3) of 51%; a percentage of gelsolin in an EGTA-resistant complex (DMSO, experiment 4) of 35%; a percentage of gelsolin in an EGTA-resistant complex (DMSO, mean value) of 38%; a percentage of gelsolin in an EGTA-resistant complex (FMLP, experiment 1) of 23%. In test [3], this substance had a percentage of gelsolin in an EGTA-resistant complex (FMLP, experiment 2) of 24%; a percentage of gelsolin in an EGTA-resistant complex (FMLP, experiment 3) of 25%; a percentage of gelsolin in an EGTA-resistant complex (FMLP, experiment 4) of 26%; a percentage of gelsolin in an EGTA-resistant complex (FMLP, mean value) of 25%. In test [3], this substance gave a percentage of gelsolin in an EGTA-resistant complex (no addition, experiment 1) of 43%; a percentage of gelsolin in an EGTA-resistant complex (no addition, experiment 2) of 40%; a percentage of gelsolin in an EGTA-resistant complex (no addition, experiment 3) of 51%; a percentage of gelsolin in an EGTA-resistant complex (no addition, experiment 4) of 47%. Besides, the percentage of gelsolin in an EGTA-resistant complex (no addition, mean value) in test [3] was 45%.
Turning to “rabbit skeletal muscle actin (from UniProt P68135 1-377) (natural protein)”, in test [4], the stoichiometry N (actin per gelsolin) was 1.
